One data set concerns the target His101 (UniProt position 101, RLRALHMKEHP). Put plainly: NMR. Particulars: 293 K per the general NMR methods; not restated for the pH titration; 150 mM ionic strength; not given for the titration ("All buffers were controlled to 150 mM ionic strength"); the standard NMR buffer is 20 mM Tris, 135 mM KCl, 15 mM NaCl, pH 7.3; bound to specific FGF4 dsDNA (13-mer containing the TTGT motif).

The target in a further data set is His67 (UniProt position 67, ENPKMHNSEIS). Put plainly: NMR. Particulars: 293 K per the general NMR methods, not restated for the pH titration, 150 mM ionic strength, not given for the titration ("All buffers were controlled to 150 mM ionic strength"), the standard NMR buffer is 20 mM Tris, 135 mM KCl, 15 mM NaCl, pH 7.3.

Chain of Transcription factor SOX-2, extended DNA-binding (HMG) domain, Sox2 31-127 (Homo sapiens) (chain, as listed by the source): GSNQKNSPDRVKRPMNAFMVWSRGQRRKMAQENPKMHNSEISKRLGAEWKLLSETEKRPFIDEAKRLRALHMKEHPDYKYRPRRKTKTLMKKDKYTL

In general, pKa refers to the negative logarithm of the acid dissociation constant. A higher pKa goes with a group that holds its proton tightly. For the substance “Transcription factor SOX-2, extended DNA-binding (HMG) domain, Sox2 31-127 (Homo sapiens)”, the pKa is recorded as 4.1 with His101; 6.25 in the data set with His67 (bound to specific FGF4 dsDNA (13-mer containing the TTGT motif)); 5.76 with His67 (free Sox2 31-127, folded).

Values taken from PMC12585912.
